Data taken from US20210388087A1 (Chugai, published 2021).
Residue numbers refer to the chain shown, from its start. Numbers in names are those of the source.

T1: Human CD3eg linker (human)
T1 construct: Single chain: epsilon and gamma subunits of human CD3 joined by a 29-mer linker, Flag-tag at the C-terminus; also called recombinant human CD3
T1 chain: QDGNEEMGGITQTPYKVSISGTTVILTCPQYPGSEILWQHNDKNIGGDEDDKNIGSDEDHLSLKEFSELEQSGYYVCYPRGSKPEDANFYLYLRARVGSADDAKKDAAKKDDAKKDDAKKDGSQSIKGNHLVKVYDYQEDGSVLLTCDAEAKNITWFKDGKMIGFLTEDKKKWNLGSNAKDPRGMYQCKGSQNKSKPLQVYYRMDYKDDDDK

B1: H183/L072 VH G26A (antibody, name in Kabat numbering, V domains shown)
VH: QVQLVESGGGLVQPGRSLRLSCAASAFTFSNAWMHWVRQAPGKGLEWVAQIKDKGNAYAAYYAPSVKGRFTISRDDSKNSIYLQMNSLKTEDTAVYYCHYVHYASASTVLPAFGVDAWGQGTTVTVSS
VL: DIVMTQSPLSLPVTPGEPASISCQASQELVHMNRNTYLHWYQQKPGQAPRLLIYKVSNRFPGVPDRFSGSGSGTDFTLKISRVEAEDVGVYYCAQGTSVPFTFGQGTKLEIK
B2: H183/L072 VH A32V (antibody, name in Kabat numbering, V domains shown)
VH: B1 VH with A26G, A32V
VL: B1 VL
B3: H183/L072 VH A32M (antibody, name in Kabat numbering, V domains shown)
VH: B1 VH with A26G, A32M
VL: B1 VL
B4: H183/L072 VH A32S (antibody, name in Kabat numbering, V domains shown)
VH: B1 VH with A26G, A32S
VL: B1 VL
B5: H183/L072 VH A32P (antibody, name in Kabat numbering, V domains shown)
VH: B1 VH with A26G, A32P
VL: B1 VL
B6: H183/L072 VH A32I (antibody, name in Kabat numbering, V domains shown)
VH: B1 VH with A26G, A32I
VL: B1 VL
B7: H183/L072 VH A32F (antibody, name in Kabat numbering, V domains shown)
VH: B1 VH with A26G, A32F
VL: B1 VL
B8: H183/L072 VH A32W (antibody, name in Kabat numbering, V domains shown)
VH: B1 VH with A26G, A32W
VL: B1 VL
B9: H183/L072 VH A32R (antibody, name in Kabat numbering, V domains shown)
VH: B1 VH with A26G, A32R
VL: B1 VL
B10: H183/L072 VH A32G (antibody, name in Kabat numbering, V domains shown)
VH: B1 VH with A26G, A32G
VL: B1 VL
B11: H183/L072 VH A32E (antibody, name in Kabat numbering, V domains shown)
VH: B1 VH with A26G, A32E
VL: B1 VL
B12: H183/L072 VH A32Q (antibody, name in Kabat numbering, V domains shown)
VH: B1 VH with A26G, A32Q
VL: B1 VL
B13: H183/L072 VH A32T (antibody, name in Kabat numbering, V domains shown)
VH: B1 VH with A26G, A32T
VL: B1 VL
B14: H183/L072 VH A32L (antibody, name in Kabat numbering, V domains shown)
VH: B1 VH with A26G, A32L
VL: B1 VL
B15: H183/L072 VH A32D (antibody, name in Kabat numbering, V domains shown)
VH: B1 VH with A26G, A32D
VL: B1 VL
B16: H183/L072 VH A32N (antibody, name in Kabat numbering, V domains shown)
VH: B1 VH with A26G, A32N
VL: B1 VL
B17: H183/L072 VH A32H (antibody, name in Kabat numbering, V domains shown)
VH: B1 VH with A26G, A32H
VL: B1 VL
B18: H183/L072 VH A32K (antibody, name in Kabat numbering, V domains shown)
VH: B1 VH with A26G, A32K
VL: B1 VL

Target: T1, Human CD3eg linker
Assay: Biacore SPR, vs template H183/L072

Compared with B1, B2 is higher in “fold change of affinity” value: 0.5 fold for the first, 0.9 fold for the second.

Compared with B3, B4 is higher in “fold change of affinity” value: 0 fold for the first, 0.4 fold for the second.

Going from B5 to B6, the “fold change of affinity” value rises from 0 fold to 0.1 fold.

Going from B7 to B8, the “fold change of affinity” value rises from 0 fold to 0.1 fold.

Compared with B9, B10 is lower in “fold change of affinity” value: 0.6 fold for the first, 0.3 fold for the second.

Going from B11 to B12, the “fold change of affinity” value rises from 0.1 fold to 0.4 fold.

B13 and B14 are the same in “fold change of affinity” value: 0 fold for the first, 0 fold for the second.

Compared with B15, B16 is higher in “fold change of affinity” value: 0 fold for the first, 0.5 fold for the second.

B17 and B18 are the same in “fold change of affinity” value: 0.5 fold for the first, 0.5 fold for the second.
